This note sets out measurements from PMC6414199, “Bim escapes displacement by BH3-mimetic anti-cancer drugs by double-bolt locking both Bcl-XL and Bcl-2” (eLife, 2019).

In test [1] the target is mCerulean3-Bcl-2 (human) (UniProt P10415). Description: FRET or BRET; FLIM-FRET in live MCF-7 cells: mCer3-Bcl-XL or mCer3-Bcl-2 stably expressed (donor), Venus-BH3 protein transiently expressed (acceptor); binding curves of FLIM-FRET efficiency against the Venus:mCer3 intensity ratio, 25 C; untreated, DMSO, 20 uM ABT-263 (18-24 h) or 1.25-20 uM A-1155463, A-1331852, ABT-263; R values interpolated at ratio 0.5 (Bcl-XL) or 0.25 (Bcl-2), ^VBad4E signal subtracted.

The target in test [2] is mCerulean3-Bcl-XL (human) (UniProt Q07817). The description is as above.
The target in test [3] is Bcl-XL single-cysteine mutant 152C, Alexa647-labelled (human) (UniProt Q07817). Kind of test: FRET or BRET; purified Alexa568-labelled BH3 protein (10 nM) and Alexa647-labelled Bcl-XL (40 nM) with liposomes, ABT-263 titrated in; 37 C, 1 h; relative displacements, not absolute affinity. (BRET reads energy transfer from a luciferase to a nearby fluorophore.)
Bcl-XL single-cysteine mutant 152C, Alexa647-labelled (human), sequence (Q07817 other isoform, or with tags, fused parts or gaps mutant): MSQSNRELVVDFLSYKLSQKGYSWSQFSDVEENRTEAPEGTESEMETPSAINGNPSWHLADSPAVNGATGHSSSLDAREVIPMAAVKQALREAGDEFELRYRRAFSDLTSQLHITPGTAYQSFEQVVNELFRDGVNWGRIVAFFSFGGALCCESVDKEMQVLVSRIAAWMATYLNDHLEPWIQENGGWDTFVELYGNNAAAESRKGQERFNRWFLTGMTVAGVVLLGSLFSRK

mCerulean3-Bcl-XL (human), sequence (Q07817 whole entry): as the sequence (Q07817 other isoform, or with tags, fused parts or gaps mutant) above, with C152V counted along it
mCerulean3-Bcl-2 (human), sequence (P10415 whole entry): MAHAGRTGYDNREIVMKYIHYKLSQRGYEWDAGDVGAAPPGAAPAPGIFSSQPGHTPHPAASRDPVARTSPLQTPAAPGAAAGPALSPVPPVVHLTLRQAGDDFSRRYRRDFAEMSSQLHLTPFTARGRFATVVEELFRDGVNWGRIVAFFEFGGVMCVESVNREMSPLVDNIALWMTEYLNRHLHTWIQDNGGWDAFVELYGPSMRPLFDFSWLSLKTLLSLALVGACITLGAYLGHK
Venus-BimEL-dN (domain or fragment), sequence (O54918 whole entry, the tested form may be a part): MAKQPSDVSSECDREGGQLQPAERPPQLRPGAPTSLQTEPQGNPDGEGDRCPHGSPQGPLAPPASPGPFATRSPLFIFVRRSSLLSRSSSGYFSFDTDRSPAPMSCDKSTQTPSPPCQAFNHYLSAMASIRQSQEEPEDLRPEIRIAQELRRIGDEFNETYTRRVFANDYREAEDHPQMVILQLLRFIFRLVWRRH
Venus-BimEL-dCTS (domain or fragment), sequence (O54918 whole entry, the tested form may be a part): as above
Venus-BimEL BH3-2A, sequence (O54918 whole entry): as the sequence (O54918 whole entry, the tested form may be a part) above

Turning to Venus-Bad-Bim-Q148R BH3-2A, the R (BH3-2A), % of FRET signal of the same construct without BH3-2A in test [1] stood at 56.9%; in test [2], 74.5%.
As to “Venus-BimEL-L185R BH3-2A (from UniProt O54918-1 1-196) (natural protein)”, the R (BH3-2A), % of FRET signal of the same construct without BH3-2A in test [2] stood at 48.1%.
On to “Venus-BimEL-L185M BH3-2A (from UniProt O54918-1 1-196) (natural protein)”, for which, in test [2], the R (BH3-2A), % of FRET signal of the same construct without BH3-2A was determined as 90%.
In the case of Venus-Bad-Bim-Q148R, the figures for the R (ABT-263), % of FRET signal left with 20 uM ABT-263 in test [1] and in test [2] were 53.5% and 89.8%, respectively.
In the case of “Venus-BimEL-L185A BH3-2A (from UniProt O54918-1 1-196) (natural protein)”, the R (BH3-2A), % of FRET signal of the same construct without BH3-2A in test [2] worked out at 159%.
In the case of Venus-Bad-Bim-I153M, the values for the R (ABT-263), % of FRET signal left with 20 uM ABT-263 in test [1] and in test [2] were 68.5% and 92.8%, respectively.
“Bid single-cysteine mutant 126C (tBid, added as cBid), Alexa568-labelled (domain or fragment)” gave an IC50 of ABT-263 for displacing the pair in test [3] of 0.4 µM.
Take Venus-Bad-Bim-I146Y-Q148R BH3-2A: the R (BH3-2A), % of FRET signal of the same construct without BH3-2A came out at 37.7% in test [1] and 50.5% in test [2].
Consider “Venus-BimEL-dCTS BH3-2A (domain or fragment)”, for which the R (BH3-2A), % of FRET signal of the same construct without BH3-2A was found to be 13.6% in test [1] and 15.1% in test [2].
On to “Venus-BimEL-L185G BH3-2A (from UniProt O54918-1 1-196) (natural protein)”, for which the R (BH3-2A), % of FRET signal of the same construct without BH3-2A in test [2] amounted to 86.8%.
Venus-Bad-Bim-I146Y: the R (ABT-263), % of FRET signal left with 20 uM ABT-263 in test [1] was 53.2%; in test [2], 83.2%.
With Venus-Bad-Bim-I146Y-I153M, the R (ABT-263), % of FRET signal left with 20 uM ABT-263 in test [1] turned out to be 69.1%; in test [2], 89%.
For the substance “Venus-BimEL-I181E BH3-2A (from UniProt O54918-1 1-196) (natural protein)”, the figures for the R (BH3-2A), % of FRET signal of the same construct without BH3-2A in test [1] and in test [2] were 47.2% and 49.2%, respectively.
On to Venus-Bad-Bim-I146Y-I153M BH3-2A, for which the R (BH3-2A), % of FRET signal of the same construct without BH3-2A in test [1] was 42.6%; in test [2], 56.8%.
Take Venus-Bad-Bim BH3-2A: the results for the R (BH3-2A), % of FRET signal of the same construct without BH3-2A in test [1] and in test [2] were 54.9% and 70.2%, respectively.
As to “Venus-BimEL-L185S BH3-2A (from UniProt O54918-1 1-196) (natural protein)”, in test [2], the R (BH3-2A), % of FRET signal of the same construct without BH3-2A came to 73.5%.
On to “Venus-BimEL-L185P BH3-2A (from UniProt O54918-1 1-196) (natural protein)”, for which, in test [2], the R (BH3-2A), % of FRET signal of the same construct without BH3-2A amounted to 59%.
Take Venus-BimEL-Bad BH3-2A: the R (BH3-2A), % of FRET signal of the same construct without BH3-2A in test [2] turned out to be 26.1%.
As to “Venus-BimEL BH3-2A (from UniProt O54918-1 1-196) (natural protein)”, the R (BH3-2A), % of FRET signal of the same construct without BH3-2A in test [1] was 66.8%; in test [2], 81.4%.
With Venus-BimEL-dCTS (domain or fragment), the R (ABT-263), % of FRET signal left with 20 uM ABT-263 in test [1] was determined as 60%; in test [2], 69%.
As for Venus-Bad-Bim-I146Y BH3-2A, in test [2], the R (BH3-2A), % of FRET signal of the same construct without BH3-2A is 46.6%.
On to “Venus-BimEL-L185F BH3-2A (from UniProt O54918-1 1-196) (natural protein)”, for which the R (BH3-2A), % of FRET signal of the same construct without BH3-2A in test [2] came to 100%.
For Venus-BimEL-dN (domain or fragment), the figures for the R (ABT-263), % of FRET signal left with 20 uM ABT-263 in test [1] and in test [2] were 90.5% and 90.8%, respectively.
Take Venus-Bad-Bim-I153M BH3-2A: the R (BH3-2A), % of FRET signal of the same construct without BH3-2A in test [1] was 102%; in test [2], 96.5%.
As to Venus-BimEL-Bad-dCTS, the R (ABT-263), % of FRET signal left with 20 uM ABT-263 amounted to 12.5% in test [1] and 40.2% in test [2].
On the same counts, the results for “Venus-BimEL-I146Y-dCTS (domain or fragment)” are 52.9% and 38.5%.
For Venus-Bad with the BH3 region of Bim, the R (ABT-263), % of FRET signal left with 20 uM ABT-263 in test [1] is 65.5%; in test [2], 98%.
As for Venus-Bad-Bim-I146Y-Q148R, the R (ABT-263), % of FRET signal left with 20 uM ABT-263 came out at 61.8% in test [1] and 90.2% in test [2].
On the same counts, the results for Venus-BimEL with the BH3 region of Bad are 65.8% and 60.5%.
Take “Venus-BimEL-I146Y BH3-2A (from UniProt O54918-1 1-196) (natural protein)”: the R (BH3-2A), % of FRET signal of the same construct without BH3-2A is 54.2% in test [1] and 71% in test [2].
Consider “Venus-BimEL-I188E BH3-2A (from UniProt O54918-1 1-196) (natural protein)”, for which the R (BH3-2A), % of FRET signal of the same construct without BH3-2A is 47.5% in test [1] and 67.2% in test [2].
For the substance “Venus-BimEL-L185H BH3-2A (from UniProt O54918-1 1-196) (natural protein)”, the R (BH3-2A), % of FRET signal of the same construct without BH3-2A in test [2] came to 49.1%.
Consider “Venus-BimEL-V192E BH3-2A (from UniProt O54918-1 1-196) (natural protein)”, for which the R (BH3-2A), % of FRET signal of the same construct without BH3-2A in test [1] amounted to 54.5%; in test [2], 52.6%.
